From patent US9308238B2, “Compositions and methods for modulating EMT and uses thereof” (Whitehead Institute for Biomedical Research, priority 2010, dated 2016)

What was measured:
HMLE^24+ cells = assay: Flow cytometry of CD44/CD24, HMLE^24+ cells after 14 day treatment; assay type: cell-based, human; conditions: control 0.2%
Experimental: FIGS. 5A-5H. Concomitant stimulation of Wnt and TGF-beta pathways allows HMLE^24+ cells to enter into a mesenchymal and SC-like state. (FIG. 5A) RT-PCR: N-Cadherin, Zeb1 and Zeb2, L32 was loading control, n=3. Prior RNA isolation, HMLE^24+-shGFP or -shSFRP1 (stable knockdown of SFRP1, FIG. 12A) cells were treated for 3 days with daily doses of indicated factors: anti-DKK1 antibody (10 μg/ml), anti-E-Cadherin antibody (1 μg/ml), TGF-beta 1 (5 ng/ml), Wnt5a (250 ng/ml), (FIG. 5B) Brightfield microscopy: images of control, TGF-beta- and iEMT-cocktail treated HMLE^24+ cells after 14 days of treatment as indicated (see also FIG. 12D). (FIG. 5C) RT-PCR: Zeb1, Zeb2, E-Cadherin and N-Cadherin, L32 was loading control, n=3. After 14 day treatment, cells were expanded in absence of further stimulation for 4 passages. […] (FIG. 5G) Lung metastasis: cells expanded for 8 passages after cessation of treatment as described in (C) were transformed with RAS; 1.0×10^5 cells were injected into the mammary fat pads of mice; GFP-labeled metastases on the surface of the lungs were quantified; *control vs. all other groups, p<0.05, n=5 mice/group. […]
Fluorescent activated cell sorting (FACS) and flow cytometry. […] Samples were sorted on a BD FACSAria SORP and analyzed on a BD LSRII using BD FACSDiva Software (BD Biosciences).

MSP-RAS cells = assay: Subcutaneous tumorigenicity assay with proteins co-implanted and injected peri-tumorally; assay type: in vivo, mice; conditions: subcutaneous limiting dilutions with protein; peri-tumoral injection at 1, 2, 3 and 7 days
Experimental: FIGS. 4A-4G. Autocrine Signaling controls tumorigenicity and metastasis of MSP-RAS cells. (FIG. 4A) Migration assay: RAS-transformed MSP (MSP-RAS) were seeded in Boyden Chamber migration assays and recombinant SFRP1 (1 μg/ml) and BMP4 protein (0.5 μg/ml) were added; *control vs. single treatment, p<1×10^−8, **single vs. double treatment with SFRP1 and BMP4 (S+B), p<1×10^−4, n=3. […] (FIG. 4E) Lung metastasis: fluorescence microscopy images of the major left lung lobe showing GFP-expressing metastatic nodules and quantification of the number of lung surface metastases; *control vs. SFRP1 treatment, p<0.05, **SFRP1 vs. BMP4 or double treatment (S+B), p<0.05, n=5 mice/group. (FIG. 4F) Liver metastasis: fluorescence microscopy images of the liver surface showing GFP-expressing micro-metastatic nodules after implantation of cells as described in (D) and quantification: 5 fields of liver surface were counted per mouse, *control vs. single treatment, p<0.05, **single vs. double treatment (S+B), p<0.05, n=5 mice/group. […]
Animal studies. […] Lung surface metastases were counted using a fluorescent microscope within 3 hr of specimen isolation.

TGF-beta 1: recombinant TGF-beta 1 protein, used at 5 ng/ml
proportion of CD44high/CD24low-negative cells (HMLE^24+ cells): 1.5%

B1: BMP4: Recombinant BMP4 protein obtained from Stemgent (protein, UniProt P12644 293-408, looked up)
Bone morphogenetic protein 4: SPKHHSQRARKKNKNCRRHSLYVDFSDVGWNDWIVAPPGYQAFYCHGDCPFPLADHLNSTNHAIVQTLVNSVNSSIPKACCVPTELSAISMLYLDEYDKVVLKNYQEMVVEGCGCR
reduction of tumor incidence (MSP-RAS cells): at least one order of magnitude

B2: SFRP1: Recombinant human SFRP1 protein (R&D Systems), secreted decoy receptor binding canonical and non-canonical Wnt ligands (protein, UniProt Q8N474 32-314, looked up)
Secreted frizzled-related …: SEYDYVSFQSDIGPYQSGRFYTKPPQCVDIPADLRLCHNVGYKKMVLPNLLEHETMAEVKQQASSWVPLLNKNCHAGTQVFLCSLFAPVCLDRPIYPCRWLCEAVRDSCEPVMQFFGFYWPEMLKCDKFPEGDVCIAMTPPNATEASKPQGTTVCPPCDNELKSEAIIEHLCASEFALRMKIKEVKKENGDKKIVPKKKKPLKLGPIKKKDLKKLVLYLKNGADCPCHQLDNLSHHFLIMGRKVKSQYLLTAIHKWDKKNKEFKNFMKKMKNHECPTFQSVFK
reduction of tumor incidence (MSP-RAS cells): at least one order of magnitude
